Assay results reported in publication PMC4067145.
Like-named read-outs stand apart in the source and are kept apart here.

Legend:
Assay in all cases: ITC
[1] = molecular target: human U2A′ protein, truncated form that included the first 180 amino acids (LRR domain) (human) (UniProt P09661)
[2] = molecular target: human U2A′ protein, truncated form that included the first 180 amino acids (LRR domain) (human) (UniProt P09661); remark: listed apart in the source
[3] = molecular target: human U2A′ protein, truncated form that included the first 180 amino acids (LRR domain) (human) (UniProt P09661); remark: listed apart in the source

Chain of full-length human U1A protein (P09012 whole entry): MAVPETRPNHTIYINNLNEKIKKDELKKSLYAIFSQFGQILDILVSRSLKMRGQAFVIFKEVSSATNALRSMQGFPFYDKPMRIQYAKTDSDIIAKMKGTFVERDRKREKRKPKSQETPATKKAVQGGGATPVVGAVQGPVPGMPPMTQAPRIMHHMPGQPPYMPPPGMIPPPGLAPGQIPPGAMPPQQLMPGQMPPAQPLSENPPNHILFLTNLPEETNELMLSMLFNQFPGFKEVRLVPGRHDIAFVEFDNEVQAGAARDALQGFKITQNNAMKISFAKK
Chain of human U2A′ protein, truncated form that included the first 180 amino acids (LRR domain) (human) (P09661 1-180): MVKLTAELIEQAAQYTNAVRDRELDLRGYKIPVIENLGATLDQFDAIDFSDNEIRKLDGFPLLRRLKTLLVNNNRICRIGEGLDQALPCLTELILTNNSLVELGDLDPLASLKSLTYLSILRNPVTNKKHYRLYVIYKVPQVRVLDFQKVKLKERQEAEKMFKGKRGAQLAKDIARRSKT

## full-length human U1A protein (from UniProt P09012 1-282) (natural protein)
[1]
  dH: 12.1 kJ/mol
[2]
  dH: 11.7 kJ/mol
[3]
  dH: 8.37 kJ/mol
